Source: patent US20240252592A1 (TIANJIN INSTITUTE OF PHARMACEUTICAL RESEARCH, published 2024)
Numbered stars: 1 amine (or outer) side, 2 acyl side, 3 side chain; on linkers, the order of the positions; unused ones are H or OH. Square brackets hold non-standard residues; d marks the D form. Side chains are listed from the residue outwards. Ends that are not written are not given here. * marks the point of attachment. C18 diacid = O=C(O)CCCCCCCCCCCCCCCCC(=O)*; γGlu = O=C(O)[C@H](CCC(=O)[*:2])N[*:1]; Palmitoyl = CCCCCCCCCCCCCCCC(=O)*; AEEA = NCCOCCOCC(=O)O; Aib = CC(C)(N)C(=O)O

Key:
GC receptor = assay: cell-based or functional assay
human GLP-1 receptor = human GLP-1 receptor (human, UniProt P43220 24-463); assay: cell-based or functional assay

B1: Compound 16 (peptide)
peptide: HXQGTFTSDKSKYLEERAAKEFIAWLLEGGPSSG
HELM: PEPTIDE1{H.[Aib].Q.G.T.F.T.S.D.K.S.K.Y.L.E.E.R.A.A.K.E.F.I.A.W.L.L.E.G.G.P.S.S.G.[am]}|PEPTIDE2{[CCCCCCCCCCCCCCCC(=O)[*:2]].[gGlu].[gGlu]}$PEPTIDE1,PEPTIDE2,10:R3-3:R2$$$V2.0; N-terminus assumed
SMILES: CCCCCCCCCCCCCCCC(=O)N[C@@H](CCC(=O)N[C@@H](CCC(=O)NCCCC[C@H](NC(=O)[C@H](CC(=O)O)NC(=O)[C@H](CO)NC(=O)[C@@H](NC(=O)[C@H](Cc1ccccc1)NC(=O)[C@@H](NC(=O)CNC(=O)[C@H](CCC(N)=O)NC(=O)C(C)(C)NC(=O)[C@@H](N)Cc1c[nH]cn1)[C@@H](C)O)[C@@H](C)O)C(=O)N[C@@H](CO)C(=O)N[C@@H](CCCCN)C(=O)N[C@@H](Cc1ccc(O)cc1)C(=O)N[C@@H](CC(C)C)C(=O)N[C@@H](CCC(=O)O)C(=O)N[C@@H](CCC(=O)O)C(=O)N[C@@H](CCCNC(=N)N)C(=O)N[C@@H](C)C(=O)N[C@@H](C)C(=O)N[C@@H](CCCCN)C(=O)N[C@@H](CCC(=O)O)C(=O)N[C@@H](Cc1ccccc1)C(=O)N[C@H](C(=O)N[C@@H](C)C(=O)N[C@@H](Cc1c[nH]c2ccccc12)C(=O)N[C@@H](CC(C)C)C(=O)N[C@@H](CC(C)C)C(=O)N[C@@H](CCC(=O)O)C(=O)NCC(=O)NCC(=O)N1CCC[C@H]1C(=O)N[C@@H](CO)C(=O)N[C@@H](CO)C(=O)NCC(N)=O)[C@@H](C)CC)C(=O)O)C(=O)O
EC50 of GC receptor mediated cAMP production (GC receptor): 0.092 nM
EC50 of GLP-1 receptor mediated cAMP production (human GLP-1 receptor): 0.405 nM

B2: Compound 25 (peptide)
peptide: HXQGTFTSDKSKYLEERAAKEFVEWLLEAGGPSSG
HELM: PEPTIDE1{H.[Aib].Q.G.T.F.T.S.D.K.S.K.Y.L.E.E.R.A.A.K.E.F.V.E.W.L.L.E.A.G.G.P.S.S.G.[am]}|PEPTIDE2{[CCCCCCCCCCCCCCCC(=O)[*:2]].[gGlu].[gGlu]}$PEPTIDE1,PEPTIDE2,10:R3-3:R2$$$V2.0; N-terminus assumed
SMILES: CCCCCCCCCCCCCCCC(=O)N[C@@H](CCC(=O)N[C@@H](CCC(=O)NCCCC[C@H](NC(=O)[C@H](CC(=O)O)NC(=O)[C@H](CO)NC(=O)[C@@H](NC(=O)[C@H](Cc1ccccc1)NC(=O)[C@@H](NC(=O)CNC(=O)[C@H](CCC(N)=O)NC(=O)C(C)(C)NC(=O)[C@@H](N)Cc1c[nH]cn1)[C@@H](C)O)[C@@H](C)O)C(=O)N[C@@H](CO)C(=O)N[C@@H](CCCCN)C(=O)N[C@@H](Cc1ccc(O)cc1)C(=O)N[C@@H](CC(C)C)C(=O)N[C@@H](CCC(=O)O)C(=O)N[C@@H](CCC(=O)O)C(=O)N[C@@H](CCCNC(=N)N)C(=O)N[C@@H](C)C(=O)N[C@@H](C)C(=O)N[C@@H](CCCCN)C(=O)N[C@@H](CCC(=O)O)C(=O)N[C@@H](Cc1ccccc1)C(=O)N[C@H](C(=O)N[C@@H](CCC(=O)O)C(=O)N[C@@H](Cc1c[nH]c2ccccc12)C(=O)N[C@@H](CC(C)C)C(=O)N[C@@H](CC(C)C)C(=O)N[C@@H](CCC(=O)O)C(=O)N[C@@H](C)C(=O)NCC(=O)NCC(=O)N1CCC[C@H]1C(=O)N[C@@H](CO)C(=O)N[C@@H](CO)C(=O)NCC(N)=O)C(C)C)C(=O)O)C(=O)O
EC50 of GC receptor mediated cAMP production (GC receptor): 0.278 nM
EC50 of GLP-1 receptor mediated cAMP production (human GLP-1 receptor): 0.211 nM

H[Aib]QGTFTSDK([AEEA-AEEA-γGlu-C18 diacid])SKYLEERAAKEFVAWLEAGGPSSG-NH2 (not fully specified; printed as HAibQGTFTSDK**SKYLEERAAKEFVAWLEAGGPSSG-Amid) [Compound 22]
EC50 of GC receptor mediated cAMP production (GC receptor): 0.018 nM
EC50 of GLP-1 receptor mediated cAMP production (human GLP-1 receptor): 0.027 nM

B3: Compound 19 (peptide)
peptide: HXQGTFTSDKSKYLESERAKEFVEWLVKEGGPSSG
HELM: PEPTIDE1{H.[Aib].Q.G.T.F.T.S.D.K.S.K.Y.L.E.S.E.R.A.K.E.F.V.E.W.L.V.K.E.G.G.P.S.S.G.[am]}|PEPTIDE2{[CCCCCCCCCCCCCCCC(=O)[*:2]].[gGlu].[gGlu]}$PEPTIDE1,PEPTIDE2,10:R3-3:R2$$$V2.0; N-terminus assumed
SMILES: CCCCCCCCCCCCCCCC(=O)N[C@@H](CCC(=O)N[C@@H](CCC(=O)NCCCC[C@H](NC(=O)[C@H](CC(=O)O)NC(=O)[C@H](CO)NC(=O)[C@@H](NC(=O)[C@H](Cc1ccccc1)NC(=O)[C@@H](NC(=O)CNC(=O)[C@H](CCC(N)=O)NC(=O)C(C)(C)NC(=O)[C@@H](N)Cc1c[nH]cn1)[C@@H](C)O)[C@@H](C)O)C(=O)N[C@@H](CO)C(=O)N[C@@H](CCCCN)C(=O)N[C@@H](Cc1ccc(O)cc1)C(=O)N[C@@H](CC(C)C)C(=O)N[C@@H](CCC(=O)O)C(=O)N[C@@H](CO)C(=O)N[C@@H](CCC(=O)O)C(=O)N[C@@H](CCCNC(=N)N)C(=O)N[C@@H](C)C(=O)N[C@@H](CCCCN)C(=O)N[C@@H](CCC(=O)O)C(=O)N[C@@H](Cc1ccccc1)C(=O)N[C@H](C(=O)N[C@@H](CCC(=O)O)C(=O)N[C@@H](Cc1c[nH]c2ccccc12)C(=O)N[C@@H](CC(C)C)C(=O)N[C@H](C(=O)N[C@@H](CCCCN)C(=O)N[C@@H](CCC(=O)O)C(=O)NCC(=O)NCC(=O)N1CCC[C@H]1C(=O)N[C@@H](CO)C(=O)N[C@@H](CO)C(=O)NCC(N)=O)C(C)C)C(C)C)C(=O)O)C(=O)O
EC50 of GC receptor mediated cAMP production (GC receptor): 6.25 nM
EC50 of GLP-1 receptor mediated cAMP production (human GLP-1 receptor): 3.53 nM

H[Aib]QGTFTSDK([γGlu-γGlu-Palmitoyl])SKYLEERAAKEFIAWLEGGPSSG-NH2 (not fully specified; printed as HAibQGTFTSDK*SKYLEERAAKEFIAWLEGGPSSG-Amid) [Compound 21]
EC50 of GC receptor mediated cAMP production (GC receptor): 0.175 nM
EC50 of GLP-1 receptor mediated cAMP production (human GLP-1 receptor): 0.83 nM

B4: Compound 17 (peptide)
peptide: H[Aib]QGTFTSDK([AEEA-AEEA-γGlu-C18 diacid])SKYLEERAAKEFVAWLKEGGPSSG-NH2
modifications: N-terminus assumed
SMILES: CC(C)C[C@H](NC(=O)[C@H](Cc1c[nH]c2ccccc12)NC(=O)[C@H](C)NC(=O)[C@@H](NC(=O)[C@H](Cc1ccccc1)NC(=O)[C@H](CCC(=O)O)NC(=O)[C@H](CCCCN)NC(=O)[C@H](C)NC(=O)[C@H](C)NC(=O)[C@H](CCCNC(=N)N)NC(=O)[C@H](CCC(=O)O)NC(=O)[C@H](CCC(=O)O)NC(=O)[C@H](CC(C)C)NC(=O)[C@H](Cc1ccc(O)cc1)NC(=O)[C@H](CCCCN)NC(=O)[C@H](CO)NC(=O)[C@H](CCCCNC(=O)COCCOCCNC(=O)COCCOCCNC(=O)CC[C@H](NC(=O)CCCCCCCCCCCCCCCCC(=O)O)C(=O)O)NC(=O)[C@H](CC(=O)O)NC(=O)[C@H](CO)NC(=O)[C@@H](NC(=O)[C@H](Cc1ccccc1)NC(=O)[C@@H](NC(=O)CNC(=O)[C@H](CCC(N)=O)NC(=O)C(C)(C)NC(=O)[C@@H](N)Cc1c[nH]cn1)[C@@H](C)O)[C@@H](C)O)C(C)C)C(=O)N[C@@H](CCCCN)C(=O)N[C@@H](CCC(=O)O)C(=O)NCC(=O)NCC(=O)N1CCC[C@H]1C(=O)N[C@@H](CO)C(=O)N[C@@H](CO)C(=O)NCC(N)=O
EC50 of GC receptor mediated cAMP production (GC receptor): 0.486 nM
EC50 of GLP-1 receptor mediated cAMP production (human GLP-1 receptor): 2.21 nM

B5: Compound 23 (peptide)
peptide: H[Aib]QGTFTSDK([AEEA-AEEA-γGlu-C18 diacid])SKYLDEKRAKEFIEWLEAGGPSSG-NH2
modifications: N-terminus assumed
SMILES: CC[C@H](C)[C@H](NC(=O)[C@H](Cc1ccccc1)NC(=O)[C@H](CCC(=O)O)NC(=O)[C@H](CCCCN)NC(=O)[C@H](C)NC(=O)[C@H](CCCNC(=N)N)NC(=O)[C@H](CCCCN)NC(=O)[C@H](CCC(=O)O)NC(=O)[C@H](CC(=O)O)NC(=O)[C@H](CC(C)C)NC(=O)[C@H](Cc1ccc(O)cc1)NC(=O)[C@H](CCCCN)NC(=O)[C@H](CO)NC(=O)[C@H](CCCCNC(=O)COCCOCCNC(=O)COCCOCCNC(=O)CC[C@H](NC(=O)CCCCCCCCCCCCCCCCC(=O)O)C(=O)O)NC(=O)[C@H](CC(=O)O)NC(=O)[C@H](CO)NC(=O)[C@@H](NC(=O)[C@H](Cc1ccccc1)NC(=O)[C@@H](NC(=O)CNC(=O)[C@H](CCC(N)=O)NC(=O)C(C)(C)NC(=O)[C@@H](N)Cc1c[nH]cn1)[C@@H](C)O)[C@@H](C)O)C(=O)N[C@@H](CCC(=O)O)C(=O)N[C@@H](Cc1c[nH]c2ccccc12)C(=O)N[C@@H](CC(C)C)C(=O)N[C@@H](CCC(=O)O)C(=O)N[C@@H](C)C(=O)NCC(=O)NCC(=O)N1CCC[C@H]1C(=O)N[C@@H](CO)C(=O)N[C@@H](CO)C(=O)NCC(N)=O
EC50 of GC receptor mediated cAMP production (GC receptor): 0.329 nM
EC50 of GLP-1 receptor mediated cAMP production (human GLP-1 receptor): 0.194 nM

B6: Compound 15 (peptide)
peptide: HXQGTFTSDYSKYLXERAAKEFVXWLEAGGPSSG
HELM: PEPTIDE1{H.[Aib].Q.G.T.F.T.S.D.Y.S.K.Y.L.D.E.R.A.A.K.E.F.V.A.W.L.E.A.G.G.P.S.S.G.[am]}|PEPTIDE2{[CCCCCCCCCCCCCCCC(=O)[*:2]].[gGlu].[gGlu]}$PEPTIDE1,PEPTIDE2,20:R3-3:R2$$$V2.0; N-terminus assumed
SMILES: CCCCCCCCCCCCCCCC(=O)N[C@@H](CCC(=O)N[C@@H](CCC(=O)NCCCC[C@H](NC(=O)[C@H](C)NC(=O)[C@H](C)NC(=O)[C@H](CCCNC(=N)N)NC(=O)[C@H](CCC(=O)O)NC(=O)[C@H](CC(=O)O)NC(=O)[C@H](CC(C)C)NC(=O)[C@H](Cc1ccc(O)cc1)NC(=O)[C@H](CCCCN)NC(=O)[C@H](CO)NC(=O)[C@H](Cc1ccc(O)cc1)NC(=O)[C@H](CC(=O)O)NC(=O)[C@H](CO)NC(=O)[C@@H](NC(=O)[C@H](Cc1ccccc1)NC(=O)[C@@H](NC(=O)CNC(=O)[C@H](CCC(N)=O)NC(=O)C(C)(C)NC(=O)[C@@H](N)Cc1c[nH]cn1)[C@@H](C)O)[C@@H](C)O)C(=O)N[C@@H](CCC(=O)O)C(=O)N[C@@H](Cc1ccccc1)C(=O)N[C@H](C(=O)N[C@@H](C)C(=O)N[C@@H](Cc1c[nH]c2ccccc12)C(=O)N[C@@H](CC(C)C)C(=O)N[C@@H](CCC(=O)O)C(=O)N[C@@H](C)C(=O)NCC(=O)NCC(=O)N1CCC[C@H]1C(=O)N[C@@H](CO)C(=O)N[C@@H](CO)C(=O)NCC(N)=O)C(C)C)C(=O)O)C(=O)O
EC50 of GC receptor mediated cAMP production (GC receptor): 0.148 nM
EC50 of GLP-1 receptor mediated cAMP production (human GLP-1 receptor): 0.58 nM
